In the nanobody polyreactivity screen of Harvey et al. (2022):

Test: yeast display, Sf9 membrane polyspecificity reagent, FACS + sequencing; frameworks hold sequencing errors
How it was run: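 Galactose-induced (36–48 hours) yeast carrying a synthetic nanobody display library were exposed to 10% biotinylated, detergent-solubilized Sf9 membrane reagent at 4 °C for 1 hour. FACS followed streptavidin microbead enrichment, using low and high (top ~1%) gates for expression (anti-HA) and reagent binding (streptavidin). Colony PCR, MiSeq 2 × 250 sequencing and CDR-length filtering followed. Labels for polyreactivity reflect the gate of origin.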

Sequence | polyreactivity (PSR sort gate)
QVQLVESGGGLVQAGGSLRLSCAPSGSSKLMLWDGIDRRLGKKGSWLPLFVLVVLRNYADSVKGRFTISRDNANNTVYLQMNSLKPEDTAVYYCAATPIGSGGWGDYWGQGTQVTVSS | low polyreactivity
QVQLVESGGGLVQAGGSLRLSCAASGNTFLPYAMGWYRQPPGKERELVAAISWSGGSTYYADSVKGRFTISRDTAKNTVYLQMNSLKPEDTAVYYCAATPTRRYYRQSAYDYWGQGTQVTVSS | high polyreactivity
QVQLVESGGRLVQAGGSLRLSCAASGRIFGYYAMGWYRQAPGKERELVAAINYSGGSTYYADSVKGRFTISRDNAKNTVYLQMNSLKPEDTAVYYCNAVRYTLLYYWGQGTQVTVSS | high polyreactivity
QVQLVESGGGLVQAGGSLRLSCAASGIIFYSNTMGWYRQAPGKERELVAGISRSGSSTYYADSVKGRFTISRDIAKNTVYLQMNSLKPEDTAVYYCADYRYGVTNAYGYWGQGTQVTVSS | high polyreactivity
QVQLVESGGGLVQAGGSLRLSCAASGRIFSRNAMGWYRQAPGKERELVAAISRSGTRTNYADSVKGRFTISRDNAKYTVYLQMNSLKPEDTAVYYCATAAFIVGSSRTYDYWGQGTQVTVSS | high polyreactivity
QVQLVESGGGLVQAGGSLRLSCAASGRTFGYYAMGWYRQAPGKERELVAGIRSSGGSTYYADSVKGRFTISRDNAKNTVYLQMNSLKPEDTAVYYCAARLRSYHYRYGYDYWGQGTQVTVSS | high polyreactivity
HVQLVESGGGLVQAGGRLRLSCAPSGSIFGLYGMGWYRQAPGKEREFVAAISQSGGRTYYADSVKGRFTISRDNAQNTVYLQMNSLKPEDTAVYYCATYVQRRGQYGIYDYWGQGTQVTVSS | high polyreactivity
QVQLVESGGGLVQAGGSLRISCAASGITFAWYAMGWYRQAPGKERELVATISAGGAITYYADSVKGRFTISRDNAKNTVYLQMNSLKPEDTAVYYCNAVTYGPYGWGQGTQVTVSS | high polyreactivity
HVQLVESGGGLVQAGGSLRLSCAASGRISLFNAMGWYRQAPGKERELVAAITYTGGSTYYADSVKGRFTISRDNAKNTVYLQMNSLKPEDTAVYYCAAEYYYVYTYDYWGQGTQVTVSS | high polyreactivity
QVQLVESGGGLVQAGGSLRLSCAASGSIFYLYAMGWYRQAPGKERDVVAAITWRGGITNYADSVKGRFTISRYNAKNTVYLQMNSLKPEVTAVYYCAADPYRFLATELYYWGQGTQVTVSS | low polyreactivity
QVQLVESGGGLVQAGGSLRLSCAASGSIFRSYAMGWYRQAPGKERELVASISRRGGSTYYADSVKGRFTISRDNAKNTVYLQMNSLKPEDTAVYYCAADHYHGYWKYDYWGQGTQVTVSS | low polyreactivity
QVQLVESVVGLVQAGVSLRLSCAASGFIVYANAMGWYRQAPGKERELVAAISRGTSTYYADSVKGRFTISRDNAKNTVYLQMTSLKPEDTAVYYCATYYYRPWGGYYWGQGTQVTVSS | high polyreactivity
QVQLVESGGGLVQAGASLRLSCAASGRISYYYTMGWYRQAPGKERELVAAISWSGGTTYYADSVKGRFTISRDNAKNTVYLQMNSLKPDDTAVYYCAAREYYTDVHGTRRYDYWGQGTQVTVSS | low polyreactivity
QVQLVESGGGLVQAGGSLRLSCAASGRIFSGNAMGWYRQAPGKERELVANITSSSNTNYADSVKGRFTISRDNAKNTVYLQMNSLKPEDTAVYYCAKSAHNGYSFYGYDYWGQGTQVTVSS | low polyreactivity
QVQLVESGGGLVQAGGSLRLSCAASGSIFTAYAMGWYRQAPGKERELVAAIRWNDGRTYYADSVKGRFTISRDNAKNTVYLQINSLKPEDTAVYYCAARYTDVTPGFAYYYWGQGTQVTVSS | high polyreactivity
QVQLVESGGGLVQAGGSRPLSCAASGFIFDSNAMGWYRQAPGKGTDLVAAISWSGTSTFYADSVKGRFTISRDNAKNTVYLQMNSLNPEDTAVYYCAAKYGRRGFNRYGYWGQGTQVTVSS | high polyreactivity
QGQLVESGGRLVQAGGSLRLSCAASGFTFDSYAMAWYRQAPGKERELVASISSSGSTNYADSVKGRFTISRDNAKNTVYLQMNSLKPEDTAVYYCAAVSRYPFIYEYWGQGTQVTVSS | low polyreactivity
QVQLVESGGGLVQAGGSLRLSCAASGFTSNYYAMGGYRQAAGKERELVAAITTGGSTHYADSVQGRFTISRDNAKNTVYVQMNSLKPEDTAVYYCAADLKDTRLFPWFCEYDYWGQGTQVTVSS | low polyreactivity
QVQLVESGGGLVQAGGSLRLSCAASGRIFYYYAMGWYRQAPGKERELVASINSVGTTTYADSVKGRVTISRDNAKNTVYLQMNSLKPEDTAVYYCARDTGSIYYDGYEYDYWGQGTQVTVSS | low polyreactivity
QVQLVESGGGLVQAGGSLRLSCAASGRTFIRYAMGWYRQAPGKERELVAAISWSGDRTYYADSVKGRFTISRDNAKNTVYLQMNSLKPEDTAVYYCNAYRYLRTATFLKFDYWGQGTQVTVSS | high polyreactivity
QVQLVESGGGLVQAGGSLRLSCAASGFIFRDYAMGWYRQAPGKERELVATISSS | low polyreactivity
QVQLVESGGGLVQAGGSLRLSCAASGFTFYKKTMGWYRQAPGKERELVAAISSSGSSTYYADAVKGRVTISRDNAKNTVYLQMNSLKPEDSAVEYCAAGRFAYHDDYWGQGTQVTVSS | high polyreactivity
